Experiment [1] has as its target T1, human CD39 (Accession No. NM_001776.6) expressed on cells (human) (UniProt P49961).
T1 sequence (looked up): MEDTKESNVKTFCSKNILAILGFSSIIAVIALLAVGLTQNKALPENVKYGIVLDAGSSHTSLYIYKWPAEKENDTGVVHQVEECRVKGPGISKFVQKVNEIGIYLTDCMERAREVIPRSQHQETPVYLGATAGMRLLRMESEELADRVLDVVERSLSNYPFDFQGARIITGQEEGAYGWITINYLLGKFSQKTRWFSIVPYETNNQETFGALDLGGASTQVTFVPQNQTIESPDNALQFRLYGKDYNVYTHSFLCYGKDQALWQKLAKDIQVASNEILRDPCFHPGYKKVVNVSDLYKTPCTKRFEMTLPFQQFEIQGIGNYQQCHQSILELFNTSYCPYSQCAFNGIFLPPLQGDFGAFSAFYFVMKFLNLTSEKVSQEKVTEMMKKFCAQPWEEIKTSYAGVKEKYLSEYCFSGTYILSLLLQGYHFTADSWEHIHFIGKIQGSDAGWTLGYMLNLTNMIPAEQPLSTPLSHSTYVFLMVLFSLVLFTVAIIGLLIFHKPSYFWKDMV
The experiment in a line: flow cytometry, Jurkat/TIM-3 + CD39 cells, KD from MFI.

In experiment [2] the target is T1, human CD39 (Accession No. NM_001776.6) expressed on cells (human). Nature of the experiment: flow cytometry, Jurkat/CD39 cells, KD from MFI.
Experiment [3] concerns the target T2, recombinant human CD39 (in-house product, 38 to 478 aa of Accession No. NM_001776.6) (human) (UniProt P49961).
T2 sequence (looked up): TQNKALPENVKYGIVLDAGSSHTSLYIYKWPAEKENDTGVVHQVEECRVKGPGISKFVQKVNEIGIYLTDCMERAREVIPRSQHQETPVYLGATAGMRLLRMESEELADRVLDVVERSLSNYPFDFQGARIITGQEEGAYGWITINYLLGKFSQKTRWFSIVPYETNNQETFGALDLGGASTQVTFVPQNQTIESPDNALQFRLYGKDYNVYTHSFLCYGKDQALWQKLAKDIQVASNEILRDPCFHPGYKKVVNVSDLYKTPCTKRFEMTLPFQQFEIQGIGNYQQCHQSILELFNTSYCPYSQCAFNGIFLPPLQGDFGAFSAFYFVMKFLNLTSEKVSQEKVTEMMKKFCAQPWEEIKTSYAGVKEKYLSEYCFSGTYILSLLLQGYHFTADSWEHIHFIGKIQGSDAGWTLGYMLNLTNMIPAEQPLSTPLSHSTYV
Nature of the experiment: SPR Biacore8K, antibody captured on anti-human IgG, antigen as analyte.

B1: HuP4_41_sc (antibody, part only; not given: linker and LALA Fc, not shown: a dimerising Fc or GST)
scFv, part: QVQLVESGGGVVQPGGSLRLSCVVSGFTLTNYGVHWVRQAPGKGLEWLAVILRRGSTDYNAAFMSRLAISKDNSKNTVYLELNSLRLDDTAVVAGDYFDYWGQGTTVTVSSGGGGSGGGGSGGGGSGGGGSQVQLVESGGGVVQPGGSLRLSCVVSGFTLTNYGVHWVRQAPGKGLEWLAVILRRGSTDYNAAFMSRLAISKDNSKNTVYLELNSLRLDDTAVVAGDYFDYWGQGTTVTVSS
For B1, the Kd in experiment [1] came to 2.08 nM. Moreover, the dissociation constant Kd in experiment [2] came out at 1.88 nM. Moreover, in experiment [3], the dissociation constant (Kd) is 0.106 nM, the dissociation rate constant (koff) came out at 0.000176 s⁻¹ and the on-rate (kon) turned out to be 1.66e+06 M⁻¹ s⁻¹.

Source of the values: US20260085127A1.
